Article PMC2063867

Target: FAK
Test: anti-GFP co-IP, anti-myc blot
Settings: reference: WT-paxillin-GFP; sites S273

Sequence of paxillin (P49024 whole entry, looked up, stated change not applied): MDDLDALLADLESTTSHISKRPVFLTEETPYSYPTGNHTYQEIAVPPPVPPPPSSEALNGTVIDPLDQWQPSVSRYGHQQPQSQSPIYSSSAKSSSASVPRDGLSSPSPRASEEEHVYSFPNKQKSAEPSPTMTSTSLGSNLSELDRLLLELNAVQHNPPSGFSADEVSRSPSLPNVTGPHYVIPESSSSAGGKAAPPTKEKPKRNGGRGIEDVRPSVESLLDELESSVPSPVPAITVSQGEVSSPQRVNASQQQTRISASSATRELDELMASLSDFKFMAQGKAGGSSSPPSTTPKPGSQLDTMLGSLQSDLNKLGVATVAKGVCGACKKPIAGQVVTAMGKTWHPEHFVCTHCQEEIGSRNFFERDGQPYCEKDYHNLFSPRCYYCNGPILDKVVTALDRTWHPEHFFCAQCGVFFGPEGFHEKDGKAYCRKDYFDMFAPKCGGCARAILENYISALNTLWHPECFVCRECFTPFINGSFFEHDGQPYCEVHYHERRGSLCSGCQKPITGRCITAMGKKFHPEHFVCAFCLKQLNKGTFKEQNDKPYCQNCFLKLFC

Substance “paxillin (from UniProt P49024) S273A-paxillin-GFP” has an other: percent increase over reference of 25%.
